Assay results reported in US20140205597A1 (published 2014).
Numbering of substitutions follows the chain as printed. In names and notes the source's numbering stands.

B1: SEQ ID NO 38 (bispecific antibody)
chain: EVQLVESGGGLVQPGGSLRLSCAASGFTFSSYAMSWVRQAPGKGLEWVSGIKSSGDSTRYAGSVKGRFTISRDNAKNTLYLQMNSLRPEDTAVYYCAKSRVSRTGLYTYDNRGQGTLVTVSSGGGGSGGGGSGGGGSGGGGSEVQLVESGGGLVQPGGSLRLSCAASGRTFNNYAMGWFRQAPGKEREFVAAITRSGVRSGVSAIYGDSVKDRFTISRDNAKNTLYLQMNSLRPEDTAVYYCAASAIGSGALRRFEYDYSGQGTLVTVSSA
notes: Nanobody construct; C-terminal: A
B2: SEQ ID NO 42 (VHH)
chain: EVQLVESGGGLVQPGGSLRLSCAASGRTFSYNPMGWFRQAPGKGRELVAAISRTGGSTYYPDSVEGRFTISRDNAKRMVYLQMNSLRAEDTAVYYCAAAGVRAEDGRVRTLPSEYTFWGQGTQVTVSSAAAEVQLVESGGGLVQPGGSLRLSCAASGRTFSYNPMGWFRQAPGKGRELVAAISRTGGSTYYPDSVEGRFTISRDNAKRMVYLQMNSLRAEDTAVYYCAAAGVRAEDGRVRTLPSEYTFWGQGTQVTVSSA
notes: as for B1
B3: SEQ ID NO 43 (bispecific antibody)
chain: DVQLVESGGGLVQPGGSLRLSCAASGFILDYYAIGWFRQAPGKEREGVLCIDASDDITYYADSVKGRFTISRDNSKNTVYLQMNSLRPEDTAVYYCATPIGLSSSCLLEYDYDYWGQGTLVTVSSGGGGSGGGSEVQLLESGGGLVQPGGSLRLSCAASGFTFRSFGMSWVRQAPGKGPEWVSSISGSGSDTLYADSVKGRFTISRDNSKNTLYLQMNSLRPEDTAVYYCTIGGSLSRSSQGTLVTVSSA
notes: as for B1
B4: SEQ ID NO 45 (VHH)
VHH: EVQLVESGGGLVQAGGSLRLSCAASRSIGRLDRMGWYRHRTGEPRELVATITGGSSINYGDFVKGRFTISIDNAKNTVYLQMNNLKPEDTAVYYCNFNKYVTSRDTWGQGTQVTVSS
notes: mutations: P14A, P41T, S62F, S74A, S82bN, R83K, L108Q
B5: SEQ ID NO 46 (VHH)
VHH: B4 VHH
notes: C-terminal tag
B6: SEQ ID NO 47 (VHH)
VHH: EVQLVESGGGLVQPGGSLRLSCAASGSVFKINVMAWYRQAPGKGRELVAGIISGGSTSYADSVKGRFTISRDNAKNTLYLQMNSLRPEDTAVYYCAFITTESDYDLGRRYWGQGTLVTVSS
B7: SEQ ID NO 48 (VHH)
VHH: EVQLVESGGGLVQPGGSLRLSCIASGLPFSTKSMGWFRQAPGKEREFVARISPGGTSRYYGDFVKGRFAISRDNAKNTTWLQMNSLKAEDTAVYYCASGERSTYIGSNYYRTNEYDYWGTGTQVTVSS
B8: SEQ ID NO 49 (VHH)
VHH: EVQLLESGGGLVQPGGSLRLSCAASGLPFSTKSMGWFRQAPGKGREFVSRISPGGTSRYYGDFVKGRFTISRDNSKNTLYLQMNSLRAEDTAVYYCASGERSTYIGSNYYRTNEYDYWGQGTLVTVSS
notes: C-terminal tag plus humanizing mutations
B9: SEQ ID NO 71 (VHH)
VHH: B4 VHH with A14P, T41P, F62S, A74S, N84S, K86R, Q112L, S117G
notes: S113G
B10: SEQ ID NO 65 (VHH)
VHH: B4 VHH with T41P, F62S, A74S, N84S, K86R, Q112L
notes: P14A
B11: SEQ ID NO 66 (VHH)
VHH: B4 VHH with L11S, A14P, T41P, F62S, A74S, N84S, K86R, Q112L
notes: L11S
B12: SEQ ID NO 67 (VHH)
VHH: B4 VHH with A14P, T41P, F62S, A74S, N84S, Q112L
notes: R83K
B13: SEQ ID NO 68 (VHH)
VHH: B4 VHH with T41P, F62S, A74S, N84S, K86R
notes: P14A, L108Q
B14: SEQ ID NO 69 (VHH)
VHH: B4 VHH with A14P, T41P, F62S, A74S, N84S, K86R
notes: L108Q
B15: SEQ ID NO 70 (VHH)
VHH: B4 VHH with A14P, T41P, F62S, A74S, N84S, K86R, Q112L, T114Q
notes: T110Q
B16: SEQ ID NO 72 (VHH)
VHH: B4 VHH with A14P, T41P, F62S, A74S, N84S, K86R, Q112L, S116G, S117G
notes: S112G, S113G
B17: SEQ ID NO 78 (VHH)
VHH: B4 VHH with Q13R, A14P, T41P, F62S, A74S, N84S, K86R, Q112L
notes: Q13R
B18: SEQ ID NO 80 (VHH)
VHH: B4 VHH with A14P, T41P, F62S, A74S, N84S, K86R, Q112L, T114Q, S116G, S117G
notes: T110Q, S112G, S113G
B19: SEQ ID NO 81 (VHH)
VHH: B4 VHH with L11V, A14P, T41P, F62S, A74S, N84S, K86R, Q112L
notes: L11V
B20: SEQ ID NO 82 (VHH)
VHH: B4 VHH with A14P, T41P, F62S, A74S, N84S, K86R, P87A, Q112L
notes: P84A
B21: SEQ ID NO 83 (VHH)
VHH: B4 VHH with A14P, T41P, F62S, A74S, N84S, K86R, T90A, Q112L
notes: T87A
B22: SEQ ID NO 84 (VHH)
VHH: B4 VHH with A14P, T41P, F62S, A74S, N84S, K86R, Q112L, S116G
notes: S112G
B23: SEQ ID NO 85 (VHH)
VHH: EVQLVESGGGSVQPGGSLRLSCAASRSIGRLDRMGWYRHRPGEPRELVATITGGSSINYGDSVKGRFTISIDNSKNTVYLQMNSLRPEDTAVYYCNFNKYVTSRDTWGQGTLVQVGG
notes: L11S, T110Q, S112G, S113G
B24: SEQ ID NO 86 (VHH)
VHH: B23 VHH with G116S, G117S
notes: L11S, T110Q
B25: SEQ ID NO 87 (VHH)
VHH: B23 VHH with Q114T
notes: L11S, S112G, S113G
B26: SEQ ID NO 89 (VHH)
VHH: B23 VHH with P14A
notes: L11S, P14A, T110Q, S112G, S113G
B27: SEQ ID NO 74 (VHH)
VHH: B23 VHH with S11L, Q114T, G116S, G117S
notes: C-terminal: G
B28: SEQ ID NO 73 (VHH)
VHH: B23 VHH with S11L, Q114T
notes: C-terminal: G; S112G, S113G

target: T1, monoclonal antibody 21-4-3; test: Biacore, captured 21-4-3
T1 construct: mouse IgG1 heavy chain, kappa light chain; also called mAb21-4-3; produced by hybridoma ABH0015 (LMBP-9680-CB)
Protocol: Binding measurements were performed using a Biacore T100 using a CM5 T120416 sensor chip, with running buffer HBS-EP+, 25° C. […] The anti-mouse IgG used was a polyclonal rabbit anti-mouse IgG antibodies reacting with all IgG subclasses, IgA and IgM (GE Healthcare; Cat#BR-1008-38; Lot#10056316). Immobilisation of the anti-mouse IgG was performed using manual amine coupling using a 7 minute injection of EDC/NHS for activation and a 7 minute injection of 1M ethanolamine HCl pH 8.5 for deactivation (Biacore, amine coupling kit).

B1 and B2 are the same in “binding vs Reference Sequence (=100%)” value: 0% for the first, 0% for the second.

Compared with B3, B4 is higher in “binding vs Reference Sequence (=100%)” value: 3% for the first, 22% for the second.

Going from B5 to B6, the “binding vs Reference Sequence (=100%)” value rises from 2% to 4%.

First: B7
Second: B8
The “binding vs Reference Sequence (=100%)” value of the first is lower: 3% for the first, 4% for the second.

Going from B9 to B10, the “binding vs Reference Sequence (=100%)” value falls from 44% to 23%.

Compared with B11, B12 is higher in “binding vs Reference Sequence (=100%)” value: 48% for the first, 101% for the second.

Compared with B13, B14 is higher in “binding vs Reference Sequence (=100%)” value: 26% for the first, 106% for the second.

First: B15
Second: B16
The “binding vs Reference Sequence (=100%)” value of the first is higher: 106% for the first, 45% for the second.

First: B17
Second: B18
The “binding vs Reference Sequence (=100%)” value of the first is lower: 1% for the first, 51% for the second.

Going from B19 to B20, the “binding vs Reference Sequence (=100%)” value falls from 75% to 56%.

Going from B21 to B22, the “binding vs Reference Sequence (=100%)” value rises from 79% to 91%.

Going from B23 to B24, the “binding vs Reference Sequence (=100%)” value rises from 32% to 64%.

Going from B25 to B26, the “binding vs Reference Sequence (=100%)” value falls from 41% to 2%.

B27 and B28 are the same in “binding vs Reference Sequence (=100%)” value: 1% for the first, 1% for the second.

target: T2, purified interference factor(s) from serum of Donor C; test: Biacore, immobilized interference factor
T2 construct: text names Donors 8, 19 and 30

First: B1
Second: B9
The “binding vs Reference Sequence (=100%)” value of the first is lower: 7% for the first, 87% for the second.

Going from B10 to B11, the “binding vs Reference Sequence (=100%)” value rises from 64% to 84%.

First: B12
Second: B13
The “binding vs Reference Sequence (=100%)” value of the first is higher: 96% for the first, 49% for the second.

Going from B14 to B15, the “binding vs Reference Sequence (=100%)” value rises from 84% to 98%.

Going from B16 to B17, the “binding vs Reference Sequence (=100%)” value rises from 56% to 100%.

First: B18
Second: B19
The “binding vs Reference Sequence (=100%)” value of the first is lower: 58% for the first, 89% for the second.

First: B20
Second: B21
The “binding vs Reference Sequence (=100%)” value of the first is higher: 100% for the first, 61% for the second.

Compared with B22, B23 is lower in “binding vs Reference Sequence (=100%)” value: 83% for the first, 42% for the second.

Compared with B24, B25 is lower in “binding vs Reference Sequence (=100%)” value: 86% for the first, 39% for the second.

Compared with B26, B27 is higher in “binding vs Reference Sequence (=100%)” value: 17% for the first, 33% for the second.

For B28, the “binding vs Reference Sequence (=100%)” value was 9%.

target: T3, purified interference factor(s) from serum of Donor A; test: Biacore, immobilized interference factor
T3 construct: text names Donors 8, 19 and 30

Going from B1 to B2, the “binding vs Reference Sequence (=100%)” value falls from 9% to 1%.

First: B3
Second: B4
The “binding vs Reference Sequence (=100%)” value of the first is higher: 3% for the first, 0% for the second.

Compared with B5, B6 is higher in “binding vs Reference Sequence (=100%)” value: 0% for the first, 1% for the second.

B7 and B8 are the same in “binding vs Reference Sequence (=100%)” value: 0% for the first, 0% for the second.

Compared with B9, B10 is lower in “binding vs Reference Sequence (=100%)” value: 88% for the first, 73% for the second.

Going from B11 to B12, the “binding vs Reference Sequence (=100%)” value rises from 81% to 102%.

First: B13
Second: B14
The “binding vs Reference Sequence (=100%)” value of the first is lower: 38% for the first, 80% for the second.

Compared with B15, B16 is lower in “binding vs Reference Sequence (=100%)” value: 90% for the first, 70% for the second.

Going from B17 to B18, the “binding vs Reference Sequence (=100%)” value falls from 96% to 65%.

Compared with B19, B20 is higher in “binding vs Reference Sequence (=100%)” value: 94% for the first, 96% for the second.

Going from B21 to B22, the “binding vs Reference Sequence (=100%)” value rises from 56% to 84%.

Going from B23 to B24, the “binding vs Reference Sequence (=100%)” value rises from 46% to 76%.

First: B25
Second: B26
The “binding vs Reference Sequence (=100%)” value of the first is higher: 51% for the first, 14% for the second.

First: B27
Second: B28
The “binding vs Reference Sequence (=100%)” value of the first is lower: 4% for the first, 6% for the second.

target: T4, purified interference factor(s) from serum of Donor B; test: Biacore, immobilized interference factor
T4 construct: text names Donors 8, 19 and 30

Compared with B1, B2 is lower in “binding vs Reference Sequence (=100%)” value: 25% for the first, 4% for the second.

First: B3
Second: B9
The “binding vs Reference Sequence (=100%)” value of the first is lower: 20% for the first, 105% for the second.

First: B10
Second: B11
The “binding vs Reference Sequence (=100%)” value of the first is higher: 121% for the first, 29% for the second.

First: B12
Second: B13
The “binding vs Reference Sequence (=100%)” value of the first is higher: 117% for the first, 115% for the second.

Compared with B14, B15 is lower in “binding vs Reference Sequence (=100%)” value: 120% for the first, 105% for the second.

Going from B16 to B17, the “binding vs Reference Sequence (=100%)” value rises from 47% to 96%.

Going from B18 to B19, the “binding vs Reference Sequence (=100%)” value rises from 5% to 50%.

First: B20
Second: B21
The “binding vs Reference Sequence (=100%)” value of the first is higher: 80% for the first, 73% for the second.

Compared with B22, B23 is lower in “binding vs Reference Sequence (=100%)” value: 50% for the first, 5% for the second.

Compared with B24, B25 is lower in “binding vs Reference Sequence (=100%)” value: 6% for the first, 5% for the second.

Going from B26 to B27, the “binding vs Reference Sequence (=100%)” value rises from 5% to 41%.

With B28 the “binding vs Reference Sequence (=100%)” value was 8%.
